Data: CN113388029A (WUHAN INST VIROLOGY CAS, dated 2021)

B1: Fab-F1-A3 (Fab, V domains shown)
VH: QVQLVESGGGLVQPGGSLRLSCAASGFTVSSNYMSWVRQAPGKGLEWVSVIYSGGSTYYADSVKGRFTISRDNSKNTLYLQMNSLRAEDTAVYYCARGDGSDDYYYGMDVWGQGTTVTVSS
VL: QSVVTQPPSVSGAQGQRVFISCTGNGANIGMGYDVHWYQQLPGRAPKLLIFGNTNRPSGVPDRFSASRSGTSASLAITGLQTADEADYYCQSYDGNLRASVFGGGTKLTVLG
notes: also called 抗体Fab F1-A3
B2: IgG-F1-A3 (antibody, V domains shown)
VH: B1 VH
VL: B1 VL

Experiments:
[1] = biological target: T1, 新型冠状病毒囊膜蛋白受体结合域 WH-RBD-TFc (SARS-CoV-2 S蛋白 RBD 319-541 - 凝血酶位点 - 人源IgG1 Fc) (SARS-CoV-2; human, UniProt P0DTC2 319-541); assay: ELISA, WH-RBD-TFc coated at 4 μg/mL, Fab titrated, detected with HRP anti-FLAG antibody
[2] = biological target: T1, 新型冠状病毒囊膜蛋白受体结合域 WH-RBD-TFc (SARS-CoV-2 …); assay: ELISA, WH-RBD-TFc coated at 4 μg/mL, IgG titrated, detected with HRP goat anti-human IgG (Fab)
[3] = biological target: T1, 新型冠状病毒囊膜蛋白受体结合域 WH-RBD-TFc (SARS-CoV-2 …); assay: BLI, biotinylated WH-RBD-TFc immobilised (40 μg/ml), IgG titrated in solution (both partners bivalent)

Binder	EC50 [1]	EC50 [2]	Kd [3]
B1	4 nM	–	–
B2	–	~0.78 nM	0.013 nM
